T1: scTOP1 catalytically inactive variant (Saccharomyces cerevisiae) (UniProt P04786)
T1 sequence: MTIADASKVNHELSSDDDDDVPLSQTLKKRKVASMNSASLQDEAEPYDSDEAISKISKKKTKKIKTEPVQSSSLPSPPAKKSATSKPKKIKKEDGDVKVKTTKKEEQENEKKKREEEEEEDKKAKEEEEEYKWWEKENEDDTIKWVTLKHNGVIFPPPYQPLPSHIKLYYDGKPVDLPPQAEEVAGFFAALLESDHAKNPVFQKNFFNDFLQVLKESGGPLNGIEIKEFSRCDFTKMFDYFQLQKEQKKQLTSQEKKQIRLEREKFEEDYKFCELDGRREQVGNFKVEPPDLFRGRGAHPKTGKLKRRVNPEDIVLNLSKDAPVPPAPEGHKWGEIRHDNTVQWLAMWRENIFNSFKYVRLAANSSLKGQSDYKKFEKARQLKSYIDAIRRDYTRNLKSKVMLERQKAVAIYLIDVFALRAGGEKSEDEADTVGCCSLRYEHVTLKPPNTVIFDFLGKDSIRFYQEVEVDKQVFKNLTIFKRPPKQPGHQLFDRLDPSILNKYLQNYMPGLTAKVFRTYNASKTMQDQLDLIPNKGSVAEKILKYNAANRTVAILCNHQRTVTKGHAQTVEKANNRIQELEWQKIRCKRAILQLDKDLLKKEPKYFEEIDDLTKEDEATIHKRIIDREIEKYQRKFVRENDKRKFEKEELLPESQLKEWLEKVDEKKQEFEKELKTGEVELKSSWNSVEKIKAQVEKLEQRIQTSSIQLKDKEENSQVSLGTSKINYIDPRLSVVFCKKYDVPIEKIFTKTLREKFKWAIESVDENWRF

T2: hTOP1MT catalytically inactive (Y955F) (Homo sapiens, UniProt Q969P6 =DIKLIDTVDLE+51-601, Y559F;internal_change)
T2 sequence: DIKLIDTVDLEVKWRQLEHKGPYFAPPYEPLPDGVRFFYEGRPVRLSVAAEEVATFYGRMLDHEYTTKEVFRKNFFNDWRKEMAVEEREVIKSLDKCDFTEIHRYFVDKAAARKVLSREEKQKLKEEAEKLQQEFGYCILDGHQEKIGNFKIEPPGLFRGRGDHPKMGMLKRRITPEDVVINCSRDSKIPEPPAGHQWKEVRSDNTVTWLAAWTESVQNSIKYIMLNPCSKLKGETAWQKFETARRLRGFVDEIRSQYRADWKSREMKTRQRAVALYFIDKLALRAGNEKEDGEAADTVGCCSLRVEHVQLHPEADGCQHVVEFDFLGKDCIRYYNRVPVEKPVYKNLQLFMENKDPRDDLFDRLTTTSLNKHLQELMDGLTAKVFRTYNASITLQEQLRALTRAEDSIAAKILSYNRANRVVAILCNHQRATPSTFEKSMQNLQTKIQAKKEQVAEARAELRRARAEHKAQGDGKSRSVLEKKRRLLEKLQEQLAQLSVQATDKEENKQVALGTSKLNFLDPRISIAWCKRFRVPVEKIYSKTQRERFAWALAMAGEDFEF


How the values were obtained:
[1] = target: T1, scTOP1 catalytically inactive variant (Saccharomyces cerevisiae); assay: fluorescence anisotropy; details: 20 mM Tris pH 8, 66 mM NaCl, 1 mM DTT, 2% glycerol, 0.5 nM DNA, 0-60 nM TOP1, 10 min at 37 C, errors are SEM of 3-5 experiments
[2] = target: T2, hTOP1MT catalytically inactive (Y955F …); assay: fluorescence anisotropy; 20 mM Tris pH 8, 66 mM NaCl, 1 mM DTT, 2% glycerol, 0.5 nM DNA, 0-60 nM TOP1, 10 min at 37 C; errors are SEM of 3-5 experiments; details: protein: recombinant; tags: GST tag removed by 3C protease; label: 5'-FAM on strand 1; blunt
[3] = target: hTOP1 catalytically inactive variant (Homo sapiens, UniProt P11387 1-765, Y723F); assay: as above; details: protein: recombinant; tags: N-terminal GST tag removed by 3C protease; label: 5'-FAM on strand 1; blunt
Sequence of hTOP1 catalytically inactive variant (P11387 whole entry Y723F): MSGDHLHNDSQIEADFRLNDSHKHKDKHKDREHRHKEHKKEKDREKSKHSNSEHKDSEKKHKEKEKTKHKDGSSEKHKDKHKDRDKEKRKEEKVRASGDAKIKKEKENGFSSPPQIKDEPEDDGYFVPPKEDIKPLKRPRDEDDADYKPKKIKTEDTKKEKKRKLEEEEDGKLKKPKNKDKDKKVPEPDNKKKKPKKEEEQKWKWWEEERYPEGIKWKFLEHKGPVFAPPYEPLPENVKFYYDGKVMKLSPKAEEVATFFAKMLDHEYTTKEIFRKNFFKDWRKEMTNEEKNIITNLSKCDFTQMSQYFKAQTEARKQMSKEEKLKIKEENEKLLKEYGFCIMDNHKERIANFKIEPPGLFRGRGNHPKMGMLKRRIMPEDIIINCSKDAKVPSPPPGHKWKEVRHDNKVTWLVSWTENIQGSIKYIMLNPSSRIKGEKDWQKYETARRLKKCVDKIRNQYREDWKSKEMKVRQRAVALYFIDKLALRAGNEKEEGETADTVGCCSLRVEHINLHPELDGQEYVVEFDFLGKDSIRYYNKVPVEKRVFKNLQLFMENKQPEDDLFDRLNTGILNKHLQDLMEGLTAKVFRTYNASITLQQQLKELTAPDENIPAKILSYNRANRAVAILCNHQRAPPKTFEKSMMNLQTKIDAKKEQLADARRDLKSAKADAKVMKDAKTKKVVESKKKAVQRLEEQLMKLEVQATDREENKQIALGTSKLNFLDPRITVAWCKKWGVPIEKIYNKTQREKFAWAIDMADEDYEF

Molecule | Kd [2] | Kd [3] | further results
ACTCGTCACGAGAGAGATGCCACGGTATTTCAAA (double strand) [Substrate C] |  |  | Kd [1]: 6.6 nM
AGCGTTGAAGATATGTGGCAAAACCTTTGT (double strand) [Substrate A] |  |  | Kd [1]: 4.6 nM
ACTCGTCACGAGAGAGATGCCACGGTATTTCAAA (double strand) [Substrate D (rG upstream of cleavage site)] |  |  | Kd ([1]; single ribonucleotide rG at position 16 of strand 1, all else DNA): 6 nM
AGCGTTGAAGAUATGTGGCAAAACCTTTGT / ACAAAGGTTTTGCCACATATCTTCAACGCT [Substrate B (rU at cleavage site)] |  |  | Kd ([1]; single ribonucleotide rU at position 12 of strand 1, all else DNA): 5.5 nM
Substrate A (dsDNA) DNA 1: AGCGTTGAAGATATGTGGCAAAACCTTTGT DNA 2: ACAAAGGTTTTGCCACATATCTTCAACGCT | 8.3 ± 0.59 nM | 0.97 ± 0.06 nM | 
Substrate D (rG upstream of cleavage site) (dsDNA, single ribonucleotide rG at position 16 of strand 1; all else DNA) DNA 1: ACTCGTCACGAGAGAGATGCCACGGTATTTCAAA DNA 2: TTTGAAATACCGTGGCATCTCTCTCGTGACGAGT | 4.6 ± 0.37 nM | 1.2 ± 0.09 nM | 
Substrate C (dsDNA) DNA 1: ACTCGTCACGAGAGAGATGCCACGGTATTTCAAA DNA 2: TTTGAAATACCGTGGCATCTCTCTCGTGACGAGT | 4.7 ± 0.83 nM | 1.8 ± 0.05 nM | 

— publication PMC12143597, “The low endoribonuclease activity and lack of rNMP preference of human mitochondrial topoisomerase 1 protect against ribonucleotide-dependent deletions”
